# Reference: the Human Domainome abundance scans (Beltran et al. 2025)
# ± gives the uncertainty stated by the source.
# B1: V(D)J recombination-activating protein 2, residues 415 to 491; numbered along this chain, P55895 (parent)
# chain: YWITCCPTCDVDINTWVPFYSTELNKPAMIYCSHGDGHWVHAQCMDLAERTLIHLSAGSNKYYCNEHVEIARALHTP
# Variants of: B1
# Assay: abundance fitness (aPCA) (normalised: wild type 0, dead -1); higher = more abundant; growth selection in yeast, the domain comes from the species named
# Conditions: Homo sapiens
row,Variant,abundance fitness
1,YWITCCPTCDVDINTWVPFYSTELNKPAMIYCSHGDGHWVHAQTMDLAERTLIHLSAGSNKYYCNEHVEIARALHTP,-0.556 ± 0.091
2,YWITCCPTCDVDINTWVPFYSTELNKPAMIYCSHGDGHWVHAQVMDLAERTLIHLSAGSNKYYCNEHVEIARALHTP,-1.11 ± 0.14
3,YWITCCPTCDVDINTWVPFYSTELNKPAMIYCSHGDGHWVHAQWMDLAERTLIHLSAGSNKYYCNEHVEIARALHTP,-0.98 ± 0.14
4,YWITCCPTCDVDINTWVPFYSTELNKPAMIYCSHGDGHWVHAQYMDLAERTLIHLSAGSNKYYCNEHVEIARALHTP,-0.961 ± 0.22
5,YWITCCPTCDVDINTWVPFYSTELNKPAMIYCSHGDGHWVHAQCCDLAERTLIHLSAGSNKYYCNEHVEIARALHTP,-0.181 ± 0.099
6,YWITCCPTCDVDINTWVPFYSTELNKPAMIYCSHGDGHWVHAQCDDLAERTLIHLSAGSNKYYCNEHVEIARALHTP,-0.193 ± 0.21
7,YWITCCPTCDVDINTWVPFYSTELNKPAMIYCSHGDGHWVHAQCEDLAERTLIHLSAGSNKYYCNEHVEIARALHTP,-0.265 ± 0.13
8,YWITCCPTCDVDINTWVPFYSTELNKPAMIYCSHGDGHWVHAQCFDLAERTLIHLSAGSNKYYCNEHVEIARALHTP,-0.231 ± 0.091
9,YWITCCPTCDVDINTWVPFYSTELNKPAMIYCSHGDGHWVHAQCGDLAERTLIHLSAGSNKYYCNEHVEIARALHTP,-0.43 ± 0.058
10,YWITCCPTCDVDINTWVPFYSTELNKPAMIYCSHGDGHWVHAQCHDLAERTLIHLSAGSNKYYCNEHVEIARALHTP,0.058 ± 0.13
11,YWITCCPTCDVDINTWVPFYSTELNKPAMIYCSHGDGHWVHAQCIDLAERTLIHLSAGSNKYYCNEHVEIARALHTP,-0.615 ± 0.098
12,YWITCCPTCDVDINTWVPFYSTELNKPAMIYCSHGDGHWVHAQCKDLAERTLIHLSAGSNKYYCNEHVEIARALHTP,-0.202 ± 0.1
13,YWITCCPTCDVDINTWVPFYSTELNKPAMIYCSHGDGHWVHAQCLDLAERTLIHLSAGSNKYYCNEHVEIARALHTP,-0.291 ± 0.066
14,YWITCCPTCDVDINTWVPFYSTELNKPAMIYCSHGDGHWVHAQCNDLAERTLIHLSAGSNKYYCNEHVEIARALHTP,-0.016 ± 0.18
15,YWITCCPTCDVDINTWVPFYSTELNKPAMIYCSHGDGHWVHAQCPDLAERTLIHLSAGSNKYYCNEHVEIARALHTP,-1.26 ± 0.38
16,YWITCCPTCDVDINTWVPFYSTELNKPAMIYCSHGDGHWVHAQCQDLAERTLIHLSAGSNKYYCNEHVEIARALHTP,0.032 ± 0.057
17,YWITCCPTCDVDINTWVPFYSTELNKPAMIYCSHGDGHWVHAQCTDLAERTLIHLSAGSNKYYCNEHVEIARALHTP,-0.395 ± 0.099
18,YWITCCPTCDVDINTWVPFYSTELNKPAMIYCSHGDGHWVHAQCVDLAERTLIHLSAGSNKYYCNEHVEIARALHTP,-0.217 ± 0.064

row,Variant,abundance fitness
1,YWITCCPTCDVDINTWVPFYSTELNKPAMIYCSHGDGHWVHAQCWDLAERTLIHLSAGSNKYYCNEHVEIARALHTP,-0.431 ± 0.13
2,YWITCCPTCDVDINTWVPFYSTELNKPAMIYCSHGDGHWVHAQCYDLAERTLIHLSAGSNKYYCNEHVEIARALHTP,-0.296 ± 0.21
3,YWITCCPTCDVDINTWVPFYSTELNKPAMIYCSHGDGHWVHAQCMCLAERTLIHLSAGSNKYYCNEHVEIARALHTP,0.036 ± 0.083
4,YWITCCPTCDVDINTWVPFYSTELNKPAMIYCSHGDGHWVHAQCMELAERTLIHLSAGSNKYYCNEHVEIARALHTP,-0.05 ± 0.075
5,YWITCCPTCDVDINTWVPFYSTELNKPAMIYCSHGDGHWVHAQCMFLAERTLIHLSAGSNKYYCNEHVEIARALHTP,-0.221 ± 0.11
6,YWITCCPTCDVDINTWVPFYSTELNKPAMIYCSHGDGHWVHAQCMGLAERTLIHLSAGSNKYYCNEHVEIARALHTP,-0.03 ± 0.055
7,YWITCCPTCDVDINTWVPFYSTELNKPAMIYCSHGDGHWVHAQCMHLAERTLIHLSAGSNKYYCNEHVEIARALHTP,-0.071 ± 0.11
8,YWITCCPTCDVDINTWVPFYSTELNKPAMIYCSHGDGHWVHAQCMKLAERTLIHLSAGSNKYYCNEHVEIARALHTP,0.122 ± 0.074
9,YWITCCPTCDVDINTWVPFYSTELNKPAMIYCSHGDGHWVHAQCMLLAERTLIHLSAGSNKYYCNEHVEIARALHTP,0.031 ± 0.045
10,YWITCCPTCDVDINTWVPFYSTELNKPAMIYCSHGDGHWVHAQCMMLAERTLIHLSAGSNKYYCNEHVEIARALHTP,0.071 ± 0.07
11,YWITCCPTCDVDINTWVPFYSTELNKPAMIYCSHGDGHWVHAQCMNLAERTLIHLSAGSNKYYCNEHVEIARALHTP,0.029 ± 0.11
12,YWITCCPTCDVDINTWVPFYSTELNKPAMIYCSHGDGHWVHAQCMPLAERTLIHLSAGSNKYYCNEHVEIARALHTP,-0.268 ± 0.087
13,YWITCCPTCDVDINTWVPFYSTELNKPAMIYCSHGDGHWVHAQCMQLAERTLIHLSAGSNKYYCNEHVEIARALHTP,0.085 ± 0.045
14,YWITCCPTCDVDINTWVPFYSTELNKPAMIYCSHGDGHWVHAQCMRLAERTLIHLSAGSNKYYCNEHVEIARALHTP,0.041 ± 0.031
15,YWITCCPTCDVDINTWVPFYSTELNKPAMIYCSHGDGHWVHAQCMSLAERTLIHLSAGSNKYYCNEHVEIARALHTP,0.102 ± 0.055
16,YWITCCPTCDVDINTWVPFYSTELNKPAMIYCSHGDGHWVHAQCMTLAERTLIHLSAGSNKYYCNEHVEIARALHTP,0.088 ± 0.061
17,YWITCCPTCDVDINTWVPFYSTELNKPAMIYCSHGDGHWVHAQCMVLAERTLIHLSAGSNKYYCNEHVEIARALHTP,0.046 ± 0.056
18,YWITCCPTCDVDINTWVPFYSTELNKPAMIYCSHGDGHWVHAQCMWLAERTLIHLSAGSNKYYCNEHVEIARALHTP,-0.193 ± 0.07
